Data as given in paper PMC5064372.

Tests used:
[1] = molecular target: catalytically inactive mouse neutrophil elastase (Ser195Ala) with a C-terminal cysteine tag, fluorescently labelled (mouse); experiment: MST; AAT serially diluted (titrated), 5 nM fluorescently labelled inactive NE, in 7.5% plasma pool from individuals with low FEV1 (<=50%, n = 12); storage buffer (20 mM Na2HPO4, 300 mM NaCl pH 7.4) with Tween 20, 22 °C, 2 h incubation; global fit of four measurements
[2] = molecular target: catalytically inactive mouse neutrophil elastase (Ser195Ala) with a C-terminal cysteine tag, fluorescently labelled (mouse); experiment: MST; AAT serially diluted (titrated), 5 nM fluorescently labelled inactive NE, in 7.5% plasma pool from individuals with high FEV1 (>=80%, n = 8); storage buffer (20 mM Na2HPO4, 300 mM NaCl pH 7.4) with Tween 20, 22 °C, 2 h incubation; global fit of four measurements

Q: Which results are given for “recombinant Z-variant alpha-1-antitrypsin (Glu342Lys) with three stabilizing mutations (Met374Ile, Ser381Ala, Lys387Arg) on the M1(Ala213) background (from UniProt P01009 25-418) (natural protein)”?
A: Kd [1]: 1300 nM; Kd [2]: 500 nM
